US20130260458A1, “METHOD OF INDUCING DIFFERENTIATION OF HUMAN PLURIPOTENT STEM CELL INTO HEPATIC PROGENITOR CELL” (NATIONAL UNIVERSITY CORPORATION CHIBA UNIVERSITY, priority 2012, published 2013)
“Also recorded” adds a separate entry of the source.

Columns and labels:
Human iPS cells (201B7) [1] = assay: Induction of differentiation into hepatic progenitor cells by growth-promoting agents (real-time quantitative PCR of AFP and DLK-1); assay type: cell-based; details: iPS cells transfected with FOXA2, GATA4, HEX, C/EBPα three times every three days, 8th day, n=3, ± standard error, ReproFF lane = 100
Method: Human iPS cells (201B7, RIKEN cell bank) were seeded onto a matrigel-coated 6-well plate, and cultured in a medium, ReproFF in accordance with a conventional method under the following conditions: 37° C. and 5% carbon dioxide. A lipofection reagent, Lipofectamine LTX (registered trade mark, Life Technologies Japan Ltd.) was used to transfect 0.5 μg of expression plasmids of FOXA2, GATA4, HEX and C/EBPα, respectively. […]
The transfection of the transcription factors was repeated three times every three days, and, on the 8th day, RNA was extracted using Isogen (NIPPON GENE CO., LTD.). […] Then, the amount of expressed α-fetoprotein (AFP), which was an indicator of hepatic progenitor cells, was analyzed by the real-time quantitative PCR method using a real-time PCR analysis reagent, Fast SYBR Green Master Mix (trade name, Life Technologies Japan Ltd.). […] The amounts of α-fetoprotein (AFP) and Delta-like (DLK)-1 expressed were quantitatively determined as an indicator of hepatic progenitor cells by employing ribosome-related protein (RLP19) as internal standard (each group, n=3).
The real-time quantitative PCR was performed by using the following primers through a PCR cycle including 30 cycles of 5 seconds at 95° C. and 20 seconds at 60° C.

Human iPS cells (201B7) [2] = assay: Expression of transcription factors in iPS cells cultured with single growth-promoting agents (RT-PCR, electrophoresis); assay type: cell-based; details: iPS cells in iPSm(−) medium with the growth-promoting agent added; PCR and electrophoresis, FIG. 2
Method: Reverse transcriptase (Life Technologies Japan Ltd.) was used to synthesize cDNAs of iPS cells, fetal hepatic cells and adult hepatic cells from 3 μg of RNA. The cDNAs were subjected to polymerase chain reaction (PCR) using the following primers to GATA4, FOXA2, HEX, C/EBPα and C/EBPβ, respectively, and to electrophoresis using 2% low-melting agarose (Lonza) and 1×TAE, for investigations on the expression of GATA4, FOXA2, HEX, C/EBPα and C/EBNβ in the iPS cells, fetal hepatic cells and adult hepatic cells.
After electrophoresis, the 2% low-melting agarose was irradiated with ultraviolet rays at 254 nm from a UV transilluminator (UVP LLC, NLMS-20E), and a Polaroid photograph (FUJIFILM Corporation, FP-3000B) thereof was taken with a gel camera (Funakoshi DS-300) to analyze an electrophoretic pattern.
PCR cycles performed included 30 cycles of thermal denaturation: 1 minute at 94° C.; annealing: 1 minute and elongation reaction: 1 minute at 72° C.
Human iPS cells (201B7, RIKEN cell bank) were seeded onto a matrigel-coated 6-well plate, and cultured in a feeder-less medium, ReproFF (trade name, Reprocell Inc.) for culture of stem cells maintained in an undifferentiated state, without using a feeder cell, under conventional conditions: 37° C. and 5% carbon dioxide.
A medium obtained by adding a 20% knock-out serum replacement (Life Technologies Japan Ltd.), 10% Minimum Essential Amino Acids (Life Technologies Japan Ltd.), 2 mM of L-glutamine (Life Technologies Japan Ltd.) and 1 mM of 2-mercaptoethanol to a D-MEM/F12 medium (Dulbecco's Modified Eagle Medium-F12 medium, Sigma-Aldrich Japan) was used as an iPSm(−) medium.
The following growth-promoting agents were added to the iPSm(−) medium, and SOX-17, GATA6, FOXA2, GATA4, HEX, TTR and C/EBPα were expressed in a manner similar to that in Experiment 1.
As the growth-promoting agents, added were bFGF (basic fibroblast growth factor, Wako Pure Chemical Industries, Ltd.), BMP (bone morphogenetic protein)-4 (Wako Pure Chemical Industries, Ltd.), oncostatinM (Wako Pure Chemical Industries, Ltd.), an epidermal growth factor (EGF, Wako Pure Chemical Industries, Ltd.), a nerve growth factor (NGF, R & D Systems, Inc.), TGF-β, (transform growth factor-β, R& D Systems, Inc.), retinoic acid (Sigma-Aldrich Japan) and a hepatic cell growth factor (HGF, Sigma-Aldrich Japan).
RT-PCR to SOX-17, GATA6 and TTR was performed under the following conditions.

Row | Molecule | α-fetoprotein/RPL19 ratio (mRNA expression) (Human iPS cells (201B7) [1]; FIG. 3-1) | DLK-1/RPL19 ratio (mRNA expression) (Human iPS cells (201B7) [1]; FIG. 3-2) | expression of C/EBPα (Human iPS cells (201B7) [2]) | expression of FOXA2 (Human iPS cells (201B7) [2]) | expression of GATA4 (Human iPS cells (201B7) [2]) | expression of GATA6 (Human iPS cells (201B7) [2]) | expression of HEX (Human iPS cells (201B7) [2]) | expression of SOX-17 (Human iPS cells (201B7) [2])
1 | epidermal growth factor (protein, UniProt P01133 23-1207, looked up, Pro-epidermal growth factor, growth factor used as growth-promoting agent (Wako Pure Chemical Industries)) Pro-epidermal growth factor: PQHWSCPEGTLAGNGNSTCVGPAPFLIFSHGNSIFRIDTEGTNYEQLVVDAGVSVIMDFHYNEKRIYWVDLERQLLQRVFLNGSRQERVCNIEKNVSGMAINWINEEVIWSNQQEGIITVTDMKGNNSHILLSALKYPANVAVDPVERFIFWSSEVAGSLYRADLDGVGVKALLETSEKITAVSLDVLDKRLFWIQYNREGSNSLICSCDYDGGSVHISKHPTQHNLFAMSLFGDRIFYSTWKMKTIWIANKHTGKDMVRINLHSSFVPLGELKVVHPLAQPKAEDDTWEPEQKLCKLRKGNCSSTVCGQDLQSHLCMCAEGYALSRDRKYCEDVNECAFWNHGCTLGCKNTPGSYYCTCPVGFVLLPDGKRCHQLVSCPRNVSECSHDCVLTSEGPLCFCPEGSVLERDGKTCSGCSSPDNGGCSQLCVPLSPVSWECDCFPGYDLQLDEKSCAASGPQPFLLFANSQDIRHMHFDGTDYGTLLSQQMGMVYALDHDPVENKIYFAHTALKWIERANMDGSQRERLIEEGVDVPEGLAVDWIGRRFYWTDRGKSLIGRSDLNGKRSKIITKENISQPRGIAVHPMAKRLFWTDTGINPRIESSSLQGLGRLVIASSDLIWPSGITIDFLTDKLYWCDAKQSVIEMANLDGSKRRRLTQNDVGHPFAVAVFEDYVWFSDWAMPSVMRVNKRTGKDRVRLQGSMLKPSSLVVVHPLAKPGADPCLYQNGGCEHICKKRLGTAWCSCREGFMKASDGKTCLALDGHQLLAGGEVDLKNQVTPLDILSKTRVSEDNITESQHMLVAEIMVSDQDDCAPVGCSMYARCISEGEDATCQCLKGFAGDGKLCSDIDECEMGVPVCPPASSKCINTEGGYVCRCSEGYQGDGIHCLDIDECQLGEHSCGENASCTNTEGGYTCMCAGRLSEPGLICPDSTPPPHLREDDHHYSVRNSDSECPLSHDGYCLHDGVCMYIEALDKYACNCVVGYIGERCQYRDLKWWELRHAGHGQQQKVIVVAVCVVVLVMLLLLSLWGAHYYRTQKLLSKNPKNPYEESSRDVRSRRPADTEDGMSSCPQPWFVVIKEHQDLKNGGQPVAGEDGQAADGSMQPTSWRQEPQLCGMGTEQGCWIPVSSDKGSCPQVMERSFHMPSYGTQTLEGGVEKPHSLLSANPLWQQRALDPPHQMELTQ | 139±13 | 59±7 | not observed to be expressed | not observed to be expressed | not observed to be expressed | observed to be expressed | not observed to be expressed | 
2 | oncostatin M (protein, UniProt P13725 26-221, looked up, growth factor used as growth-promoting agent (Wako Pure Chemical Industries)) Oncostatin-M: AAIGSCSKEYRVLLGQLQKQTDLMQDTSRLLDPYIRIQGLDVPKLREHCRERPGAFPSEETLRGLGRRGFLQTLNATLGCVLHRLADLEQRLPKAQDLERSGLNIEDLEKLQMARPNILGLRNNIYCMAQLLDNSDTAEPTKAGRGASQPPTPTPASDAFQRKLEGCRFLHGYHRFMHSVGRVFSKWGESPNRSRR |  |  | slightly expressed; also recorded: not observed to be expressed | not observed to be expressed | not observed to be expressed |  | not observed to be expressed | observed to be expressed
